Laboratory results published in the domain aggregation screens of Martell et al. (2025).

Experiment: soluble fraction after stress (log2 fold change); higher = more stays soluble; pooled small domains, quantitative proteomics
Conditions: stress: pH 4
Procedure, shortened: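 Pooled custom libraries of small protein domains were subjected to pH 4 and measured by high-throughput quantitative proteomics. The log2 fold change in soluble amount per domain is reported, higher values meaning more remained soluble. This is used as a measure of aggregation propensity.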

Sequence: HMDNAILQELYDYYKEDPSLSQSELIISMLTRIQEAVGYVSKDVQEEVARLAGVNRGYVAAIIKNLPHL
- soluble fraction (log2): -0.963

Sequence: HMNPDTERIREFVAVSLKNRKVATSGEIQNMIVKQFKNFKLKSHGYSNMKSFLSSIDKIQLNSNGKYSLK
- soluble fraction (log2): 0.0764

Sequence: HMTKDEFLTTLRTLIQDMPPEDRRDVMNYYTEYFEDAGPEREQEVLRQLGSPEQVAREVLGG
- soluble fraction (log2): -0.459

Sequence: HMIVPPAIPFRALGIFGPRDRPIVTFEDGPRLINAREGDVLDGRFILRRVGRESVDFAFVGLPPEITRRIP
- soluble fraction (log2): -0.608

Sequence: HMKKPRKTSRKSIENAAIFYLQRFSSSIENLRRVLMRRVYRSAQYHNTKPEEDAKIVDSIIYRLIETGVL
- soluble fraction (log2): -0.0658

Sequence: HMSTTGIVKWFNEEKGFGFITQDQGGADVFVHYRAIASEGFKTLAEGQKVSFEVEQGQKGLQAANVQA
- soluble fraction (log2): -0.948

Sequence: HMFTDEELEHIRSALIQAGIRLSKELGLQKMSVEKLTAAVGIAKGSFYMFFGSKEDFILEVAEYTGAQ
- soluble fraction (log2): -0.679

Sequence: HMDAMLGEALRLIRVYHDLKQKQAAERLEVSTSYLSEIERGLKTPTLDIIQRYATVFDMPVSSIMFFSENL
- soluble fraction (log2): -1.19

Sequence: HMENMETSDIVARYSNMPGGIIEAFHEIVDRHGFLSQEAIIEAARGFGISVAEAYGVATFYSMFS
- soluble fraction (log2): -0.42

Sequence: HMENFKVFMKAVQEVSPVPVRFDEISSGAKGYYSNTEKEIVIQNGMSESQTMKTGIHEVTHAMLHDRDF
- soluble fraction (log2): 0.22

Sequence: HMQDPVWVDWLGENDWFQKDPKRRGLANGYSEILRAEQPELVGRPFLDEVTRRVQADFPELFG
- soluble fraction (log2): -1.33

Sequence: HMERPPHELLSDREYQTMVMIASGRTLTQIAEEMSLSPKTVSVYRARLLEKMKLKNNAELTHYALKHKLV
- soluble fraction (log2): -0.2

Sequence: HMRMQRYYLTDMSEKGREALPGVLDEMGYAGRYTMSDNSIAINSNMIVLSKAIKRAEDIAHNE
- soluble fraction (log2): -0.148

Sequence: HMTNKQEYAYQWLKSSIIENKIKPSTLLVERHLSEMLHISRTPVRTALMRLADEGFVVISPGRGMVVA
- soluble fraction (log2): -0.0492

Sequence: HMAKSKYETHVLPNLDKIIKWAKAGATAKEIAANLHIAYSTFRKYLDEGQEGDERYAALSAAFAQA
- soluble fraction (log2): 0.22

Sequence: HMGTVSSGSSSTDTPFSLGEIVRHKVFGEGVVLSIEGQGDASRIQINFNTAGTKWLVTAYADLEK
- soluble fraction (log2): -1.28

Sequence: HMELSPAELGERLKVARETANVTQDAGAKAAGIARTTLVAIEKGQRSARIDELQTLSRRYGVSVNSLLRR
- soluble fraction (log2): 0.096

Sequence: HMDIANEQEQIFITAMRNDDFNPILELKMKGYQPSKNVLKSLQPDVSSTTFIAAAKIFQMEGVL
- soluble fraction (log2): -1.31

Sequence: HMAKITERVMGSAALRDYDPNYLPDEVLKALDGYPPFDGYVYKDGILYARVKIGDTFFIIPPI
- soluble fraction (log2): -1.84

Sequence: HMPETAQLTDIQVSRSQAHTGIFSLHYYLTGTDSRGERVRLEISGDDYTRLSGSSSVTVEYYRHTGRIVRY
- soluble fraction (log2): -0.552

Sequence: HMSAVIGTATVTTSSGSLNLRESASLYSRVIRTIPRGATVDVLSRDTSWSRVRYAGSEGYVLNQYLTFQT
- soluble fraction (log2): ≥ 0.43

Sequence: HMKKDLATYAYEHIKQMVIDRELMPGERIQQEVLARELGISRTPLVTALNRLASENLVELEANKGFSVRRF
- soluble fraction (log2): 0.429

Sequence: HMPLPFSPVMFVGTKSGAQTDLDGNYKIETYYSSDSLKVVVLGYAPLAKKVKQGTTSVVNFELSAAS
- soluble fraction (log2): 0.104

Sequence: HMLPIKLDLEIGENVRVVSGPLENFVGSVVSFDTDQQKVKLVVEMFGRKTPVELDFIEVQKLR
- soluble fraction (log2): -1.47

Sequence: HMNDNTAINEFKKMVFTRMVHLQIDNAELSKLSGVTNSKILALKYGNSNTLKLGDIVKVAKTLNINLNDL
- soluble fraction (log2): 0.094

Sequence: HMSSQWWYSAGGERKGPVDFATLRGLYVQGAIDGRTLAWREDMQGWEAVNDIPDLEPLRRAVPPEL
- soluble fraction (log2): 0.11

Sequence: HMVDTSDLPAIVEKVFADNPEQVNDILNGKDRVKGFLVGQIMKATRGQAPPDEVNKLIDATLEKMKAA
- soluble fraction (log2): 0.188

Sequence: HMPQPEIEIAAVVPYSAGALLSRIHDDGELLAPVEYRGEGVFVHARVPADIEAAMRRGGMLSPAET
- soluble fraction (log2): -0.164

Sequence: HMRWGDPLTVKVPSFIGQTKDDIAKQHYPFRIEWHGEGAKIGSQLPEVDSVIKQDGTIHLYLV
- soluble fraction (log2): -0.0995

Sequence: HMIEFYTMQDMFYFKLTGDNTSRERREALGKILGIGYGNATQMVSRLNNYGISKEEFSKAIEEIEKQLEA
- soluble fraction (log2): -1.36

Sequence: HMPKRSKDEAELEFLEMLRDNQVDSTWSFGKIISQLGSTDPRYWMVDDDPLWKRQIFEKYLSNR
- soluble fraction (log2): -1.79

Sequence: HMTDSISLTLNGDPRPFRAGATVADLVRDIGLDPAKVAVERNLEIVPRSTLENVHLADGDVLEIVHFV
- soluble fraction (log2): -0.45

Sequence: HMNPHGVAIIDVRKGKASTLRSLATSVRSLGEWDQLKIPIFNLESLTSLVLWHGLDAIVKEPESLQSNLIL
- soluble fraction (log2): -0.222

Sequence: HMADTFVMPDLVYRRYEPVRGYFERGGFHMGAVKFEPYEGISDGTILRQNPLPGHPLRRRDVISLVVAAS
- soluble fraction (log2): -0.464

Sequence: HMSDIDHIAGRRIRQARLNAGMTLETLASQAGISKALLSKIENSKVSSPLATFSKISKVLGVPLSDLLKE
- soluble fraction (log2): 0.204

Sequence: HMAQELPYEKVTMNGKMFYVYHVKAGEGLYLISRTFSVNADEILKFNPSIENGLKSGQVLYIPIK
- soluble fraction (log2): -0.403

Sequence: HMTGIESVKPSSDFTVEGNRIVAGDAEVEVYDLAGRKVNNNNLTTGVYIAKIAGSAESVKVFV
- soluble fraction (log2): 0.22

Sequence: HMAEMLQDVLNMLSAKDREILVRYYYYYESVKQVAAEMQMSESAVKMRMSRARKKMQQELIDKG
- soluble fraction (log2): -0.704

Sequence: HMKQQNFADLAGRFVFNADNEVVFNFGKHKNVPVATVLKNEPGYYGWMMGGDFPLFTKKILKQIKEA
- soluble fraction (log2): -0.952

Sequence: HMQLPIGDVKLSVEHLSSGTALQDISFEVHRGEIFGFLGLVGAGRSETAETIFGLREKTDGKISIDGTVL
- soluble fraction (log2): 0.117

Sequence: HMDPEARRRAILNAAIDVIVEKGAAALTHRAVAARAGVSLGSTTKYFSSIEDLRENAMDALVREMD
- soluble fraction (log2): -0.756

Sequence: HMVITDPFFLEPENLVKDAVALMEKYRISGVPITKKGKLVGILTNRDLRFESNYEQPIANVMS
- soluble fraction (log2): -0.363

Sequence: HMYGQEVKVLGLFGDRAFIKVDEKSAVIRIGQSHQNVQLKSISNQKAILLVDNKDIALGLGDSYQSA
- soluble fraction (log2): -0.397

Sequence: HMDRSQRDQEQAQLIRLVQQAFDDSGQRYGAEKIRITLAEGGIRVSTKRIAAIMQELDLRSI
- soluble fraction (log2): 0.251

Sequence: HMSEVIYVAEDNVGQRIDVFLVNKLVDASRANIQKNIVDGVILVNNKNVKANYKLRLGDVVEIRTQ
- soluble fraction (log2): -0.317

Sequence: HMVDALYGQGARVMRDFSEGSGIVKLDNGETWTGRLSPAASGASLYVGDRVIVTRIDGAIAEVTPP
- soluble fraction (log2): -0.446

Sequence: HMNSRTLAYSDFIRKVDKGEVSAVVIDGEQVQVQTKDGQTFVTIQPQSEQMNDKLVEQLIAKDISVKAERQ
- soluble fraction (log2): 0.0565

Sequence: HMSFSQNIGKRIREERLRLNLTQEKLAEDVNLSMAYIGQVERGDRSLTLDNLIIVAKRLGVTIDYLLS
- soluble fraction (log2): -0.171

Sequence: HMQRDDMQIDRLIQIVFLLLSRNNLTAKQLAEELGVSTRTIYRDINILSVAGIPITSQKGYGGGLSLLQG
- soluble fraction (log2): -0.261

Sequence: HMGIAFDYDAGRFDQVPPNLVEKWQQAYPAVDVLSELRRMEAWASANPVNRKSNWQRFIVNWLTRAQDRAG
- soluble fraction (log2): -0.16

Sequence: HMTPTFSNQDLIKAGLAGSPVAKRRRERLGELLGIGYGNAKQLLKRLDLFAIDRPTFERAVAQLDQEGK
- soluble fraction (log2): 0.414

Sequence: HMDWPDDETIARIYALIKSDISSQARKVMELRFSEGMPFARIAAAMGISETAVYRHLSHALTVIRQKLN
- soluble fraction (log2): -1.24

Sequence: HMEEYTVEFVKHKVKRKQTLYTISKLYNVSIDDIIKYNSQIEGFNLSRRMELNIPVKKTLIVKNE
- soluble fraction (log2): -0.823

Sequence: HMQDVWEPFLAKGYVFADGMLTKLIHKRGDVYKTQEIGSDKIIYVIKDGDTFAHGKTVKAAMLDLAFKKS
- soluble fraction (log2): -0.392

Sequence: HMIIVMKRNATETQIDHVVRWVESIGYRAHRSNGTEQTVVKAVGGERGGEELKYLAALSGVEKVVPIR
- soluble fraction (log2): 0.141

Sequence: HMNTELFTKNLFNKLEVLLGEKNWKSKTAQLLNISSDAFYKKIRNESQLNLHELLLIKDTFKISIDALLDE
- soluble fraction (log2): -0.929

Sequence: HMAGATDTVRNLLERQIREGELLPGQRLPTEPELAARLGVSRNSLREALQSLEDSGLIVKRHGIGTFVTE
- soluble fraction (log2): 0.22

Sequence: HMETKQYIVEAQDEGTRLDVYLTKELGQSRSYVQSLVKEGHVQVNGKTGKSNLKLSSSSEILVTIPEVQ
- soluble fraction (log2): 0.0538

Sequence: HMSEKRLHLVVDESDVNTRIDKYIADELDGYSRSFIQKLIKDNNVLVNGRAVKPNYNIGISDNIDIVLPKL
- soluble fraction (log2): 0.188

Sequence: HMHSILDDIEGIGPARRKALMRHYMNLDAIKSATVEELAAVPSMNEKSAKAVHNFFHQQKKD
- soluble fraction (log2): 0.22

Sequence: HMPSLNDRPDDVLYLFSYFLQSFSHRQVSLPKILKKALIQHDWWGNIRELHSVALRYYIFGDTLNGAYDSL
- soluble fraction (log2): -0.895

Sequence: HMSDILALMPGTIKQILVAPGDSVKRGQTVIIMESMKMELTIAAHRDGVVKRIPVEQGGQVEKGMRLLELE
- soluble fraction (log2): -0.263

Sequence: HMTQGIDQISFSQFLDKVQSGEVTDVRISGSDITGTLKTGGKFETVAGNYEKIWDLLRENKVVFVVDSP
- soluble fraction (log2): -0.309

Sequence: HMQERNYIVRRGDTLWDLAKTYYGSGTKYTVIYDANRDNIEAEAKRRGKQSSNGGYWIYPGTELTI
- soluble fraction (log2): -0.0819

Sequence: HMKRLPMRKIRDVLRLSADGLSTRKIGVSLTIGRTTVQAYLDRAAEVDLSWPLPPEMSDTDLERLIYPR
- soluble fraction (log2): -0.119

Sequence: HMDYYSILGVDRNATGEDIKKAFKKKAMKYHPDRNPDNKESERKFKEAKEAYDTLSNPQKKSMYDQFGT
- soluble fraction (log2): 0.141

Sequence: HMERLKYSQVVDLFKGEQVKSFVLDESNQLKMELQDGSTVSYKLRSFEQFYLDLSDTVKEQKESGIITDYD
- soluble fraction (log2): -1.72

Sequence: HMTARYQQVEDYIVRRIQDGSWPPGHRLPSEHELVQQFGMSRMTVNRALRDLMQKGRIVRVAGVGSFVAQD
- soluble fraction (log2): 0.22

Sequence: HMISEWDAAYSYAKQYYEENGHLFVPKKYVTSEGAALGKWIWEQRDSYLGLSSYKISDKKIEMLEDIGMFW
- soluble fraction (log2): -2.73

Sequence: HMKTYGGDNSLHKFDEHHSWMVAKYGPVVKQTINGETKWLKVKKDLTLAQVKKMKLEDVLLPKSQT
- soluble fraction (log2): 0.245

Sequence: HMELTDSLTENAKKLYSVLTTEPRHIDDLSEEAKLSSADTLAALTELELYSLVALSEGKHYYK
- soluble fraction (log2): -1.05

Sequence: HMGDPYAILGLLPGASMEDVRHAWRRQAAENHPDRMLQRGAPPEFVEIAREKTAAINAAYARIREELSI
- soluble fraction (log2): -0.638

Sequence: HMKNIRKQAIEAIDRIKNGNPIVISKNAKLIFKNIAKEANVSPTELHREFRDVMLYVNSLKAP
- soluble fraction (log2): 0.271

Sequence: HMNTYEIIGGDNRARGPVTGEELSQWIREGRASGHTMARVSDGEHWQPLGSFPEFVGPLQGLPW
- soluble fraction (log2): -0.163

Sequence: HMDTRQFWEQWVADEIRTFEHKDRKQLFGWFEGNKPKLGQMKKLGYGDLLTKVQTSWDEIYQQKE
- soluble fraction (log2): 0.29
